From paper PMC3885427 come the findings set out here.

SOX6, full-length, yeast two-hybrid fusion, sequence (P35712 whole entry, the tested form may be a part): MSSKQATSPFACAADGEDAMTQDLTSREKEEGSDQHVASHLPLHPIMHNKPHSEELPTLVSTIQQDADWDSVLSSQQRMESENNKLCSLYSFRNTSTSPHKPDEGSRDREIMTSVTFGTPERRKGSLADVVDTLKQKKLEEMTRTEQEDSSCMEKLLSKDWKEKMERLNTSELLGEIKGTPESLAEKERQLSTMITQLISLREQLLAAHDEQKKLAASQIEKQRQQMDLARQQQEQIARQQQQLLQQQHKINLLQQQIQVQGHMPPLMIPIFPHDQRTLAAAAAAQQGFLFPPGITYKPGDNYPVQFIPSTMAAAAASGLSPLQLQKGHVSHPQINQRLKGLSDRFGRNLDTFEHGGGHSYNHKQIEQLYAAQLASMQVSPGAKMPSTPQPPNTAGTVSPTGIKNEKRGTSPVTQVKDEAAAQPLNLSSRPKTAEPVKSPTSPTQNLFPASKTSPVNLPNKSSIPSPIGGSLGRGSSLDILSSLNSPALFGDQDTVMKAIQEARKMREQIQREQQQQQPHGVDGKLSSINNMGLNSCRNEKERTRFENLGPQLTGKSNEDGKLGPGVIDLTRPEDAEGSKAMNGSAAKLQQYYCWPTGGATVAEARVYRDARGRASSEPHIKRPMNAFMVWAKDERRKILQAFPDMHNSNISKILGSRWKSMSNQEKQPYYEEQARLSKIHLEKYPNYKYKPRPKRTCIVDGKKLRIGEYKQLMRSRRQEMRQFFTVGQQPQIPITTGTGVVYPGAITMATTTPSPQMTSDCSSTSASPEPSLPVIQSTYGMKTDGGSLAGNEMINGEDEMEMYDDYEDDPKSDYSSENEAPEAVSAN
SHOX2a (called SHOX2 in the paper), full-length, yeast two-hybrid fusion, O60902-1 L155V, sequence (O60902 whole entry L155V, the tested form may be a part): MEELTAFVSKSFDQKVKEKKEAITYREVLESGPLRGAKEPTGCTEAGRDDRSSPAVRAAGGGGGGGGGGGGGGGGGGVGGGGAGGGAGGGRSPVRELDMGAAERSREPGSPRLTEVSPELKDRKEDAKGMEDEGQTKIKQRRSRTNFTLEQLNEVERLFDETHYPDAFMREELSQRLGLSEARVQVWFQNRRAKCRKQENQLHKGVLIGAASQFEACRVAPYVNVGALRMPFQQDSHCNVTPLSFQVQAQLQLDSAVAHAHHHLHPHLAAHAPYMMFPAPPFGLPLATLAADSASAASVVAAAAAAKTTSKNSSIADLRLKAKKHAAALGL
SHOX2a (called SHOX2 in the paper), full-length, yeast two-hybrid fusion, O60902-1 R319P, sequence (O60902 whole entry R319P, the tested form may be a part): as the sequence (O60902 whole entry L155V, the tested form may be a part) above, with V155L, R319P counted along it
SHOX2a (called SHOX2 in the paper), full-length, yeast two-hybrid fusion, O60902-1 A193P, sequence (O60902 whole entry A193P, the tested form may be a part): as the sequence (O60902 whole entry L155V, the tested form may be a part) above, with V155L, A193P counted along it
SHOX2a (called SHOX2 in the paper), full-length, yeast two-hybrid fusion, O60902-1 R218Q, sequence (O60902 whole entry R218Q, the tested form may be a part): as the sequence (O60902 whole entry L155V, the tested form may be a part) above, with V155L, R218Q counted along it
SHOX2a (called SHOX2 in the paper), full-length, yeast two-hybrid fusion, O60902-1 R196C, sequence (O60902 whole entry R196C, the tested form may be a part): as the sequence (O60902 whole entry L155V, the tested form may be a part) above, with V155L, R196C counted along it
SHOX2a (called SHOX2 in the paper), full-length, yeast two-hybrid fusion, O60902-1 A269D, sequence (O60902 whole entry A269D, the tested form may be a part): as the sequence (O60902 whole entry L155V, the tested form may be a part) above, with V155L, A269D counted along it
SHOX2a (called SHOX2 in the paper), full-length, yeast two-hybrid fusion, O60902-1 K139E, sequence (O60902 whole entry K139E, the tested form may be a part): as the sequence (O60902 whole entry L155V, the tested form may be a part) above, with K139E, V155L counted along it

This experiment addresses SOX6, full-length, yeast two-hybrid fusion (UniProt P35712). In words: yeast two-hybrid (β-galactosidase liquid assay). Conditions: S. cerevisiae Y187; SOX6 in pGBT9 (BD), SHOX2 mutant in pACT2 (AD); CRPG as substrate; parent: est. 100; read off a plot.
Take “SHOX2a (called SHOX2 in the paper), full-length, yeast two-hybrid fusion, O60902-1 A193P”: the percent of parent (% Interaction with SOX6) came to 8.

On to “SHOX2a (called SHOX2 in the paper), full-length, yeast two-hybrid fusion, O60902-1 A269D”, for which the percent of parent (% Interaction with SOX6) was found to be 87.

As to “SHOX2a (called SHOX2 in the paper), full-length, yeast two-hybrid fusion, O60902-1 K139E”, the percent of parent (% Interaction with SOX6) was 44.

With “SHOX2a (called SHOX2 in the paper), full-length, yeast two-hybrid fusion, O60902-1 L155V”, the percent of parent (% Interaction with SOX6) was found to be 10.

As to “SHOX2a (called SHOX2 in the paper), full-length, yeast two-hybrid fusion, O60902-1 R196C”, the percent of parent (% Interaction with SOX6) came out at 29.

For “SHOX2a (called SHOX2 in the paper), full-length, yeast two-hybrid fusion, O60902-1 R218Q”, the percent of parent (% Interaction with SOX6) is 89.

With “SHOX2a (called SHOX2 in the paper), full-length, yeast two-hybrid fusion, O60902-1 R319P”, the percent of parent (% Interaction with SOX6) was 80.
